The text below walks through data of US20060058230A1 (published 2006).

Non-standard residues stand in square brackets, D forms with d. No end group written: not given here. 2Nal = N[C@@H](Cc1ccc2ccccc2c1)C(=O)O; Nle = CCCC[C@H](N)C(=O)O; βAla = NCCC(=O)O

Assay [1] addresses T1, recombinant hPTH1-receptor (human, UniProt Q03431 27-593).
T1 construct: whole, on cells; also called PTH1-Rc; HEK293/C21 cell line
T1 sequence (looked up): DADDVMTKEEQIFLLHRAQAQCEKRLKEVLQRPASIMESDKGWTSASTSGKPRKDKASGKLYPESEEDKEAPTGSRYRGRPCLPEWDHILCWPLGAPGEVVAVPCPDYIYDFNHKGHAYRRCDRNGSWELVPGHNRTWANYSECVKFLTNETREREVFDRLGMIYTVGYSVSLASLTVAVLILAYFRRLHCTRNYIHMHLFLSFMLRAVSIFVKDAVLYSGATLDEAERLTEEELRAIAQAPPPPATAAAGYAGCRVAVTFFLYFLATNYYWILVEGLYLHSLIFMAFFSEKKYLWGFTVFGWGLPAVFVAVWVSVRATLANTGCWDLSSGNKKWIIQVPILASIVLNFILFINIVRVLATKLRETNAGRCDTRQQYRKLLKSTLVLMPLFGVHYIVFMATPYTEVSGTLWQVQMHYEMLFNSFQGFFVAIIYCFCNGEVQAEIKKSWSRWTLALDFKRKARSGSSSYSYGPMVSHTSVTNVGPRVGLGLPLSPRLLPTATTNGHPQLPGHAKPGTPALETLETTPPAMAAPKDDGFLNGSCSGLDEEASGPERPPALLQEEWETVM
The assay is described as follows: competition with 125I-[Nle8,18,Nal23,Tyr34]bPTH(1-34)NH2 on HEK293/C21 cells with hPTH1-receptor. How it is done:
Human embryonic kidney (HEK293) cells, stably transfected with recombinant hPTH1-receptor (HEK293/C21 cell line, ˜400,000 receptors/cell) (Pines, M., Adams, A. E., Stueckle, S., Bessalle, R., Rashti-Behar, V., Chorev, M., Rosenblatt, M., and Suva, L. J. Endocrinology 1994, 135, 1713-1716), were maintained in D-MEM medium supplemented with 10% fetal bovine serum and […] glutamine at 37° C. in a humidified atmosphere of 95% air/5% CO₂. The medium was changed every 3-4 days, and the cells were subcultured every week. Ligand stimulated adenylyl cyclase activity and radioreceptor competition binding assays were performed on confluent cultures, 1-3 days after a change of medium.
[Nle^{8,18},Nal²³,Tyr³⁴]bPTH(1-34)-NH₂ was radioiodinated and the crude material was purified as previously described (Roubini, E., Duong, L. T., Gibbons, S. W., Leu, C. T., Caulfield, M. P., Chorev, M., and Rosenblatt, M. Biochemistry 1992, 31, 4026-4033). Briefly, 67 μg of peptide in 50 μL phosphate buffer, pH 7.4, in a borosilicate tube, coated with 10 μg Iodogen® (Pierce Chemical), were treated at room temperature with 2 mCi [¹²⁵I]Na for 12 min, followed by dilution with 200 μL of 0.1% TFA in water.
Cells were plated in 24-well tissue culture dishes (Corning Glass Works, Corning, N.Y.) and grown to subconfluency. […] After incubation, cells were washed twice with PBS and lysed with 0.1 M NaOH. Radioactivity in the lysate was measured in a γ-counter (Analytic GammaTrac™ 1193).

The target in assay [2] is T1, recombinant hPTH1-receptor. Put plainly: cell-based or functional assay.

B1: [Nle^8,β-Ala^18, Nal^23, Tyr^34]bPTH(1-34)NH2 (peptide)
peptide: AVSEIQF[Nle]HNLGKHLSS[βAla]ERVE[2Nal]LRKKLQDVHNY-NH2
modifications: N-terminus assumed
SMILES: CCCC[C@H](NC(=O)[C@H](Cc1ccccc1)NC(=O)[C@H](CCC(N)=O)NC(=O)[C@@H](NC(=O)[C@H](CCC(=O)O)NC(=O)[C@H](CO)NC(=O)[C@@H](NC(=O)[C@H](C)N)C(C)C)[C@@H](C)CC)C(=O)N[C@@H](Cc1c[nH]cn1)C(=O)N[C@@H](CC(N)=O)C(=O)N[C@@H](CC(C)C)C(=O)NCC(=O)N[C@@H](CCCCN)C(=O)N[C@@H](Cc1c[nH]cn1)C(=O)N[C@@H](CC(C)C)C(=O)N[C@@H](CO)C(=O)N[C@@H](CO)C(=O)NCCC(=O)N[C@@H](CCC(=O)O)C(=O)N[C@@H](CCCNC(=N)N)C(=O)N[C@H](C(=O)N[C@@H](CCC(=O)O)C(=O)N[C@@H](Cc1ccc2ccccc2c1)C(=O)N[C@@H](CC(C)C)C(=O)N[C@@H](CCCNC(=N)N)C(=O)N[C@@H](CCCCN)C(=O)N[C@@H](CCCCN)C(=O)N[C@@H](CC(C)C)C(=O)N[C@@H](CCC(N)=O)C(=O)N[C@@H](CC(=O)O)C(=O)N[C@H](C(=O)N[C@@H](Cc1c[nH]cn1)C(=O)N[C@@H](CC(N)=O)C(=O)N[C@@H](Cc1ccc(O)cc1)C(N)=O)C(C)C)C(C)C
notes: Synthetic analog of bovine PTH(1-34), carboxamide at the C-terminus
Turning to B1, in assay [1], the IC50 – broadly, the midpoint of a concentration-inhibition curve – amounted to 285 nM. Further, the “EC50 (half maximal stimulation of adenylate cyclase)” value in assay [2] worked out at 3.9 nM.
